For test [1], the target named is T1, Human PD-1 (Swiss-Prot entry Q15116), full length, on cells (human, UniProt Q15116 21-288).
T1 construct: Full length open reading frame of hPD-1 stably expressed on CHO-K1 cells; also endogenous PD-1 on CD3/CD28-stimulated human CD3+ T cells and PD-1 on transfected Jurkat cells; also called hPD-1; hPDCD1
Kind of test: CELISA on CHO-K1.hPDCD1 cells. On the procedure:
To further characterize these mutant hPD-1 antibodies they were tested for binding to hPD-1 in CELISA format using CHO-K1 cells (American Type Culture Collection, Manassas, Va.), stably transfected with cDNA encoding the full length open reading frame of hPDCD1 (hPD-1), subcloned into the pCI-neo vector (Promega). Parental CHO-K1 or CHO-K1.hPDCD1 cells were seeded in culture medium (DMEM-F12 (Gibco) with 10% Fetal Bovine Serum (Hyclone) and Pen/Strep (Gibco)) in tissue culture plates and incubated for 48 hours at 37° C. Subsequently culture medium was removed and cells were incubated for 1 hour at 37° C. with the mutant hPD-1 antibodies (10 μg/ml (=66 nM) and dilutions thereof). Next, cells were washed with Phosphate-Buffered Saline/0.05% Tween (PBST) and incubated for 1 hour at 37° C. with Goat-anti-human IgG-HRP (Southern Biotech). Subsequently, cells were washed 3 times with PBST and anti-hPD1 immunoreactivity was visualized with 100 al TMB Stabilized Chromagen (Invitrogen). Reactions were stopped with 100 al 0.5 M H2SO4 and absorbances were read at 450 and 610 nm. […] Blockade of hPD-L1 binding by the mutant hPD-1 antibodies was tested in CELISA format. […] Reactions were stopped with 100 al 0.5 M H2SO4 and absorbances were read at 450 and 610 nm. Calculated IC50 values in Table 12 for the blockade of hPD-L1 represent the concentration at which half of the inhibition is observed.

In test [2] the target is T1, Human PD-1 (Swiss-Prot entry Q15116), …. The test can be described thus: cell-based or functional assay.
The target is the same in test [3]. The test can be described thus: CELISA on CHO-K1.hPDCD1 cells; blocking of biotinylated hPD-L2 Fc. On the procedure:
Parental CHO-K1 or CHO-K1.hPDCD1 cells were seeded in tissue culture plates and incubated for 72 hours at 37° C. in culture medium. […] Cells were then washed three times with PBST followed by addition of Streptavidin-HRP conjugate on the cells, which was incubated for 1 hour at 37° C. […] Reactions were stopped with 100 al 0.5 M H₂SO₄ and absorbances were read at 450 and 610 nm. […] Calculated IC50 values represent the concentration at which half of the inhibition is observed.

The target of test [4] is T2, hPD-1/Fc fusion protein (R&D Systems) (human, UniProt Q15116 25-167).
T2 construct: Bought reagent; also called Recombinant hPD-1/Fc; not shown: Fc part of the bought fusion protein
T2 sequence (Q15116 25-167 limits assumed): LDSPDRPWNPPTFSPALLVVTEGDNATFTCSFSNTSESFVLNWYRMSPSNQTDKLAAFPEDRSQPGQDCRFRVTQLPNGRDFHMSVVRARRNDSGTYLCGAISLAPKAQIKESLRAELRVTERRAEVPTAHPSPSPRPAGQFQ
The test can be described thus: BLI (Octet RED96), hPD-1/Fc amine-coupled, IgG in solution, 1:1 global fit. How it is done: This assay was, performed by coupling hPD-1/Fc fusion protein (R&D Systems) to amine-reactive second generation biosensors (Fortebio) using standard amine chemistry. […] Amine-reactive biosensors were pre-wet by immersing them in wells containing 0.1M MES pH=5.5 for 10 minutes. The biosensors were then activated using a 0.1M NHS/0.4M EDC mixture for 5 minutes. hPD-1/Fc fusion protein was coupled by immersing the biosensors in a solution of 12 ug/mL hPD-1/Fc in 0.1 M MES for 7.5 minutes. The biosensor surface was quenched using a solution of 1M ethanolamine for 5 minutes. Biosensors were equilibrated in Octet kinetics buffer (ForteBio) for 5 minutes. […] Dissociation was measured after transfer of the biosensors into kinetics buffer and monitoring of the interferometry signal for 45 minutes. The assay was run with a plate temperature of 30° C. The observed on and off rates (kobs and kd) were fit using a 1:1 binding global fit model comprising all concentrations tested, and the equilibrium binding constant KD was calculated.

Test [5] deals with T3, Macaca fascicularis PD-1 (Swiss-Prot entry B0LAJ3), full length, on cells (Macaca fascicularis, UniProt Q15116 25-288 (human entry)).
T3 construct: Full length open reading frame transiently expressed on CHO-K1 cells; also endogenous PD-1 on CD3/CD28-stimulated cynomolgus PBMCs; No signal peptide limits are stated for the cynomolgus entry; also called cyno PD-1; cynomolgus PD-1
T3 chain: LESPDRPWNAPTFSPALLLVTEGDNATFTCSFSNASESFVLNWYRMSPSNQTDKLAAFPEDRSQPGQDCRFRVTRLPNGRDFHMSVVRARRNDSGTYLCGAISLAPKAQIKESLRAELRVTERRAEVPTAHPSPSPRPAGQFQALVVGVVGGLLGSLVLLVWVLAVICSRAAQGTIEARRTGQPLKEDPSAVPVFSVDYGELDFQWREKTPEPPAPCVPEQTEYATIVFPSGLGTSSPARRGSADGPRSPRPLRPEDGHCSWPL
The test can be described thus: flow cytometry, Binding (%), on anti-CD3/anti-CD28 stimulated cynomolgus PBMCs; animal #1 or #3, same marker in the legend. How it is done: To this end Macacaca fascicularis (cynomolgus) blood was diluted 1:1 with PBS and added to 50 ml tubes containing 13 ml Lymphoprep 95%/PBS 5%. Cells were centrifuged for 30′ at 450 g and 20° C. without brake. Next, plasma was removed by aspiration and PBMCs were recovered from the plasma/Ficoll interface. PBMCs were washed twice times in PBS. Cells were frozen in liquid nitrogen and retrieved from the freezer on the day of the experiment. Since endogenous expression of PD-1 on resting T cells is low thus the thawed PBMCs were stimulated with αCD3/αCD28 coated beads (Gibco) for 48 hours.

The values below come from patent US20180030137A1 (ADURO BIOTECH HOLDINGS EUROPE B V, published 2018).

Where “and” joins values, the source holds several entries; their conditions need not be identical. Equal entries are not always repeated.

T1 sequence (Q15116 21-288, one chain of several): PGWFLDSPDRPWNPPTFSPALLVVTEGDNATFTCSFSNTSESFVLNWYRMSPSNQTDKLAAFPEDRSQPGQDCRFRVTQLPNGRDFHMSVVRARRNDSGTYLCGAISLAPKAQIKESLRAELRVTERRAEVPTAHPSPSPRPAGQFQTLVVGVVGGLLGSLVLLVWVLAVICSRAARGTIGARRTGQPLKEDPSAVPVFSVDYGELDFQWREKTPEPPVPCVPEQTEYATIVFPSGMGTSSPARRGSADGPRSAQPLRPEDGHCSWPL

B1: hPD1.29H5L4 (antibody, V domains shown)
VH: EVQLVQSGAEVKKPGASVKVSCKASGYIFTTYYIHWVKQAPGKGLEWIGWIFPGDVSTQYNEKFQDKATITVDKSASTAYMQLSSLRSEDTAVYYCTREAYDYAVYWGQGTLVTVSS
VL: DIQMTQAPSSLSASVGDRVTITCKASQNVDTNVAWFQQKPGKAPKSLIFSASYRYSGVPSRFSGSGSGTDFTLTISSLQPEDFATYYCQQYNNYPFTFGGGTKLEIK
notes: Expressed as human IgG4, kappa with the stabilizing S241P (Kabat) hinge mutation in HEK293 cells; also called humanized PD-1 antibody hPD1.29H5L4
Regarding B1, a half-maximal effect in test [1] (EC50) was put at 130 pM. The “IC50; NFAT-luciferase signal (RLU) of Jurkat cells expressing human PD-1, with CHO cells expressing hPD-L1” value in test [2] was 4390 pM. Further, inhibition in test [3] was half-maximal at 610 pM (IC50). Also, in test [4], the Kd came to 11 pM, the koff was determined as 9.2e-06 s⁻¹ and the kon was found to be 860000 M⁻¹ s⁻¹. Moreover, the “EC50 (read off the curve)” value in test [5] was ~1000 pM and ~2000 pM.
